According to the supplement of paper PMC12764529:
± gives the half width of the 95% confidence interval.

What was measured:
[1] = folding stability dG unfold from trypsin proteolysis; higher = more stable
In short: (§1)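 Sequencing followed digestion of designed mini-proteins with trypsin and chymotrypsin, each at 11 concentrations in threefold dilutions together with a no-protease condition. The mini-proteins were under 80 residues, had no cysteine, sat in a PA-tagged cDNA display construct, and were kept only if AlphaFold2 dimer inter-PAE was above 15. From the counts, Bayesian fitting gave K50, and unfolding free energy was derived against a sequence-predicted unfolded-state K50 and a shared folded-state K50, per protease or combined.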

[2] = folding stability dG unfold from chymotrypsin proteolysis; higher = more stable
In short: as §1

[3] = folding stability dG unfold (combined trypsin and chymotrypsin); higher = more stable
In short: as §1

Row | Sequence | folding stability dG unfold [1] | folding stability dG unfold [2] | folding stability dG unfold [3]
1 | SAGEFKIDILPGDNVARITSPEGSFLAPFTATFTFDVPDIADPNKIKPKPVVFNLVIEMKLDDFFDLLSSAG [r5_234_TrMRF] | 2.49 ± 0.1 kcal/mol | 4.17 ± 0.17 kcal/mol | 3.36 ± 0.15 kcal/mol
2 | SAGGSAMTVKVRLRVRRRVFNEDGELVAEEELELEVEVEVRPPPPPPPPPLTAEELAEKLGLEPEDSAGGSA [r15_572_TrROS_Hall] | 2.52 ± 0.093 kcal/mol | 3.37 ± 0.074 kcal/mol | 3.19 ± 0.39 kcal/mol
3 | SAGGSAKKVIVIEVKPGEKITITINGKKVEIVEVKPEGETFLIRNKDTGEIYKITVVDGKVVIEKLSAGGSA [r15_235_TrROS_Hall] | 2.43 ± 0.09 kcal/mol | 4.28 ± 0.076 kcal/mol | 3.74 ± 0.22 kcal/mol
4 | SAGGELKLLFNFPSKEEAEEFAEALKKAYPNFEVEVEYDPETGLFYLTLKPKEIPPLSPEELEKLLESAGGS [r16_674_TrMRF] | 2.96 ± 0.085 kcal/mol | 4.87 ± 0.056 kcal/mol | 4.7 ± 0.071 kcal/mol
5 | SAGGSKTITIELTTKDGYKFTITVTEKDDKVTANITFLDPTVTPEKIDETIATLEKLAKEAGKNLTISSAGG [r13_774_TrMRF] | 2.62 ± 0.11 kcal/mol | 3.66 ± 0.088 kcal/mol | 3.36 ± 0.095 kcal/mol
6 | SAGGSAGGSAGDEKYTLTVTIPVPKNAPVLVGAEKGYEVIDLNPDAPVEEGYITVKVEFGSAGGSAGGSAGG [r11_701_TrMRF] | -0.376 ± 0.086 kcal/mol | -0.833 ± 0.14 kcal/mol | -0.391 ± 0.15 kcal/mol
7 | SAGGIRIDDEGMIQIYFPGWRHTIPIKPNLEITEITIPDDGYIKITFRIPGKTVKHEFPMLPPGQEISAGGS [r16_635_TrROS] | 2.35 ± 0.082 kcal/mol | 1.32 ± 0.1 kcal/mol | 1.82 ± 0.27 kcal/mol
8 | SAGGSMVITITFPDGSTVTIPEEELLELLKKYGIEPDESDKEKVAKEAAKIIGEEKGIPIKEVKINSAGGSA [r2_83_JUSTAS] | 1.54 ± 0.059 kcal/mol | 3.43 ± 0.092 kcal/mol | 3.01 ± 0.066 kcal/mol
9 | SAGGSAGGSIKITIYDIMRMLGPNAPPAEWVEKVKHLAKWLADKLGLPDVEIEVEVMSPDQFPSAGGSAGGS [r12_666_TrROS] | 3.3 ± 0.25 kcal/mol | 4.49 ± 0.13 kcal/mol | 4.06 ± 0.17 kcal/mol
10 | SAGGKEIEELAKKLAEELGVEVVKVEVEKVGPDTVKVTVTLKDGKKIKIEIKKKKDGSYEIKVEIEPSAGGS [r8_284_TrROS_Hall] | 3.08 ± 0.19 kcal/mol | 2.63 ± 0.22 kcal/mol | 2.97 ± 0.3 kcal/mol
11 | KTIMIWFPFKSWEDVRNLIRDLARELNLPPGRDVDVKVERHPNNGYFRVTVTVSNPNGEKIDITIWFPMWDS [r1_84_TrROS] | 3.42 ± 0.1 kcal/mol | 5.26 ± 0.15 kcal/mol | 4.91 ± 0.16 kcal/mol
12 | SAGGGKKTKYVLLTFNPKEVKAEDLEKEILKKGAEIYIGDKPIDPGKGVKEVMKANPNTTFLVKIYDSAGGS [r8_38_TrMRF] | 1.11 ± 0.11 kcal/mol | 1.61 ± 0.42 kcal/mol | 1.12 ± 0.32 kcal/mol
13 | SAGGSASLASLRKVGETVTYTITPDGTLTVTTHTFYRDPVTGELVVESTTTTTPIPPGDAAALAALSAGGSA [r15_207_JUSTAS] | 2.72 ± 0.072 kcal/mol | 2.37 ± 0.054 kcal/mol | 2.5 ± 0.098 kcal/mol
14 | SAGGSAGGSAGTLTLRVQLFDEDGRLVAEREVELEVELPPPPPVELEFDEETRELRRRRLSAGGSAGGSAGG [r17_348_TrROS_Hall] | 1.12 ± 0.18 kcal/mol | 0.811 ± 0.22 kcal/mol | 0.965 ± 0.24 kcal/mol
15 | SAGGETLTVTVLIKNKDEKNKYYKVEVKVTVEKNENGEKTLTIEMKITDKNGNKKTIKVNLKDIKIIDSAGG [r13_787_TrROS_Hall] | 2.52 ± 0.26 kcal/mol | 4.33 ± 0.24 kcal/mol | 3.69 ± 0.32 kcal/mol
16 | SAGMKKVEIVEEVKDPETNEPVILVRDKDTGELVKFHPNGKVTIYDLNDPNKAKVFEAKISDVLEELANSAG [r5_491_TrMRF] | 0.622 ± 0.071 kcal/mol | 1.28 ± 0.19 kcal/mol | 0.847 ± 0.21 kcal/mol
17 | SAGGSAGGSAGGKIIVVKDKETGKYRVIIVDKKTKKTIVVEVDPNTTLEEALKKAKELLKSAGGSAGGSAGG [r7_138_TrROS_Hall] | 3.05 ± 0.12 kcal/mol | 3.97 ± 0.12 kcal/mol | 3.52 ± 0.24 kcal/mol
18 | SAGGSKVRIEVEELPDGTVKVTAEVEVDGVLYKIEAEFRINEDGEIVEMKVKIEARPLPPPPPPEESAGGSA [r2_474_TrROS_Hall] | 3.5 ± 0.27 kcal/mol | 4.17 ± 0.17 kcal/mol | 3.92 ± 0.21 kcal/mol
19 | SAGMVIRDPGDGKYIYISPGSGEIEIFNDGKEKKIPFPPGEEMEIEIDPDDGTITITFPNNGRELEIPLSAG [r5_858_TrROS] | 0.598 ± 0.049 kcal/mol | 0.846 ± 0.11 kcal/mol | 0.699 ± 0.16 kcal/mol
20 | SAGGSAGGSKPIPYRVKIPSPNGKTHKFDVQIQVRPDGMIDIHVPSGKTIHIPANYPVEIEPWSAGGSAGGS [r20_227_TrROS] | 0.132 ± 0.13 kcal/mol | -0.208 ± 0.52 kcal/mol | 0.056 ± 0.21 kcal/mol
21 | SAGGSAGGSAEPDIEVVVTPVPGPYGPLYYRVEVRIPEAGRTVFTYARLDDPEEIEGIPIESAGGSAGGSAG [r3_432_TrMRF] | 0.829 ± 0.066 kcal/mol | 0.545 ± 0.16 kcal/mol | 0.7 ± 0.077 kcal/mol

Row | Sequence | folding stability dG unfold [1] | folding stability dG unfold [2] | folding stability dG unfold [3]
22 | SAGGSAGGSAPKPKTKTIMFRFPGTPEDALDIAKEIANYFNDRGLEIEVERHPNGYIMITFPSAGGSAGGSA [r18_262_TrROS] | 2.11 ± 0.059 kcal/mol | 2.82 ± 0.034 kcal/mol | 2.61 ± 0.065 kcal/mol
23 | SAGGSAGRSRPLRLRFENPENGLRTEVELRVFEIGDYRVILLRERTYHPDTPGLSERDLLILLPPESAGGSA [r15_960_TrMRF] | 3.03 ± 0.058 kcal/mol | 3.508 ± 0.023 kcal/mol | 3.35 ± 0.1 kcal/mol
24 | SAGGSAGGSMTVETTPLATSRDPESDNTVTLTRTTVTFPDGTVRTETWTVTTAPDGTTTTTVSSAGGSAGGS [r12_250_JUSTAS] | 0.00376 ± 0.037 kcal/mol | 1.35 ± 0.033 kcal/mol | 0.999 ± 0.049 kcal/mol
25 | SAGGSAGGSKMVLKVTLENGKTIEIEAGETIEEIKAKIEEEFGKPVKIKVEKVSAEELGLKPESAGGSAGGS [r12_379_TrROS_Hall] | 0.304 ± 0.13 kcal/mol | 1.59 ± 0.055 kcal/mol | 1.33 ± 0.17 kcal/mol
26 | SAGGSAGGSAGGSVWIRMPPSKIKDLLDKFGIEPIEIEKMPPGWVYIRITPDALKEAGVFSAGGSAGGSAGG [r7_587_TrROS] | 0.839 ± 0.14 kcal/mol | 0.887 ± 0.3 kcal/mol | 0.946 ± 0.16 kcal/mol
27 | SAGGDWVPIEFTIMVPAEELQEGKPPTAEDIVEELFPPNFNVDIDVQQFPGNGYVYATVKIWVPPGMPSAGG [r13_862_TrROS] | 2.36 ± 0.19 kcal/mol | 2.46 ± 0.098 kcal/mol | 2.4 ± 0.21 kcal/mol
28 | ADFRVTEESPEGVVTQTTTVALPDGTSRTLTYSYSKDASLTSVTVSYTPDSVTTTTTPVTPVPPGSPELAGS [r1_53_JUSTAS] | -0.411 ± 0.17 kcal/mol | 0.24 ± 0.19 kcal/mol | 0.0981 ± 0.13 kcal/mol
29 | SAGGSAGGSADDEVVEIVDVLPLPNRPVLVVKVRGPDGQTKVYDPATGKWLTPEEAKAALSSAGGSAGGSAG [r3_206_TrMRF] | 1.09 ± 0.032 kcal/mol | 1.98 ± 0.045 kcal/mol | 1.61 ± 0.086 kcal/mol
30 | SAGGSAGGSAMLRIKIYYKKNGEEYEIEVEGSLEEALKEAAKKLGLSEDEIKKIEIEELPESAGGSAGGSAG [r3_79_TrROS_Hall] | 2.66 ± 0.12 kcal/mol | 3.73 ± 0.086 kcal/mol | 3.41 ± 0.2 kcal/mol
31 | SAGMIKPEEIVEKVKAIFEEEGLENVTVKVYYDEETDEIFVEVEVELEPEEEEKAQAILDKIKKELGLESAG [r5_9_TrMRF] | 3.02 ± 0.29 kcal/mol | 2.38 ± 0.23 kcal/mol | 2.85 ± 0.21 kcal/mol
32 | SAGAHTVSVHYVEPGSKKLSSVETSEITLEPGEELPLDEVAARFPSENYEVTAQEEPDAITITIYVYRGSAG [r5_269_JUSTAS] | 0.303 ± 0.062 kcal/mol | 0.522 ± 0.27 kcal/mol | 0.547 ± 0.087 kcal/mol
33 | SAGGSAGGSAPMVLLLEFDSPEEATEAAKKIAEEFEKLGAKVEVEIFKPPEDKYLVLIRIDSAGGSAGGSAG [r3_211_TrMRF] | 3.66 ± 0.38 kcal/mol | 3.91 ± 0.12 kcal/mol | 3.89 ± 0.21 kcal/mol
34 | SAGGSAGGSGVEITLPNKDELIEYLKKKFAEKGGKIKKIKIEPIGPNMYKALIETDPNDPYFKSAGGSAGGS [r12_647_TrMRF] | 0.759 ± 0.069 kcal/mol | 0.532 ± 0.17 kcal/mol | 0.611 ± 0.13 kcal/mol
35 | SAGGMSVSFPVDSSEELKKLLPKDYLVEIVSTPPDGSKSVRVVRPEDLEIDLPEGEKYYFEIKFLPKESAGG [r13_461_TrMRF] | 0.442 ± 0.072 kcal/mol | -0.138 ± 0.093 kcal/mol | 0.203 ± 0.19 kcal/mol
36 | SAGGMTITFTLEFDLEDDRRITVTATIDPTGDDVLITVRVELTLPNGEKLEFTATIVLPPGAHPDELISAGG [r13_3_TrMRF] | 4.15 ± 0.38 kcal/mol | 5.25 ± 0.24 kcal/mol | 5.53 ± 0.85 kcal/mol
37 | SAGGAPVTVREEELPENSKLITIEYPDGLTLEVLEYPDKVLVREWDTATGKELSSRTLTHEELEKLLSAGGS [r8_476_JUSTAS] | 1.81 ± 0.052 kcal/mol | 2.41 ± 0.034 kcal/mol | 2.19 ± 0.14 kcal/mol
38 | SAGGSAGGSPVLVRVYARDEDGNETPVAEIALPVENDNPEEAAKKAREIAKKLGVKEYRVEIESAGGSAGGS [r12_569_TrMRF] | 1.37 ± 0.031 kcal/mol | 1.56 ± 0.046 kcal/mol | 1.48 ± 0.04 kcal/mol
39 | KTVHIPINGMPLDEMLDMARDALREDPDEGKTITIWVPGNPEWLENLGFDKIEPYKDPERPYMRIKFKVPPS [r1_467_TrROS] | 0.298 ± 0.17 kcal/mol | 1.24 ± 0.22 kcal/mol | 0.816 ± 0.14 kcal/mol
40 | SAGGSAGGSKTKTIEIEVDGKKVRITVNEDGSVTIEVYYPGKPVKTIEIPGMSIEEILKALLESAGGSAGGS [r20_8_TrROS_Hall] | 3.08 ± 0.071 kcal/mol | 2.27 ± 0.071 kcal/mol | 2.73 ± 0.098 kcal/mol
41 | SAGPNKPYKIRVSIMHPGKWREHEIDIDPGEDIEEALDEIMDKLPPNWMIMIHYANGEMIMIPIPPEMISAG [r5_77_TrROS] | 1.72 ± 0.097 kcal/mol | 2.18 ± 0.086 kcal/mol | 2.11 ± 0.16 kcal/mol
42 | SAGGSAPKTVTFTTPKGYPITVTPGDRTVTLTHPDRPLATFDVPPDVPTFTITLPDGDTATITVDDSAGGSA [r2_385_TrMRF] | -0.581 ± 0.088 kcal/mol | -0.408 ± 0.19 kcal/mol | -0.446 ± 0.11 kcal/mol
